Measured values as given in publication PMC10965980.

Target: mGluR1 (UniProt P97772)
Assay: anti-Homer1 IP, mGluR1 western blot
Conditions: reference: wild-type Homer1; sites S117

- binding against the reference: stronger
Substance: Homer1 (from UniProt Q9Z2Y3) Homer1 S117A
